# Source: patent US20150344570A1 (published 2015)
# Molecular target: T1, FcγRIa (human, UniProt P12314 16-292)
# T1 construct: extracellular domain; Soluble extracellular domain expressed in FreeStyle293 cells, used as analyte in Biacore; also called FcgRI; 1a; not shown: His tag attached to the C terminus
# Assay: SPR (Biacore); He Ab vs HeCon Ab GpH7-A5/GpH7-B3/GpL16-k0
# Method: Analysis of interaction between objective antibody and the FcγR was carried out using Biacore T100 (GE Healthcare). HBS-EP+ (GE Healthcare) was used as the running buffer, and the measurement temperature was set to 25° C. Chips produced by immobilizing the antigen peptide by the amine coupling method to a Series S Sencor Chip CM5 (GE Healthcare), or alternatively, chips produced by allowing preliminarily biotinylated antigen peptides to interact with and immobilize onto a Series S Sensor Chip SA (certified) (GE Healthcare) were used. Antibodies of interest were captured onto an antigen peptide-immobilized chip, and allowed to interact to each FcγR diluted with running buffer. To regenerate and repeatedly use the chip, the antibodies captured on the chip were washed off by reacting 10 mM glycine-HCl, pH 1.5.
# T1 sequence (P12314 16-292): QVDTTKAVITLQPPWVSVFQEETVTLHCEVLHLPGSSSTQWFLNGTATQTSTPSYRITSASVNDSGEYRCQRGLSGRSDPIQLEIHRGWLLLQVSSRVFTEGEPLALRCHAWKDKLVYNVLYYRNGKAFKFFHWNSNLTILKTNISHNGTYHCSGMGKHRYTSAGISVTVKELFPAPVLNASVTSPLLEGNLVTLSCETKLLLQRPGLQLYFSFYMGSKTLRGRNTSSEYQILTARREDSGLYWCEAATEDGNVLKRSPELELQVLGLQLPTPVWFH
row,Binder,He/Con_1a
1,"GpH7-A5/GpH7-B3 variant Q295_18N/GpL16-k0 (antibody, human IgG1, kappa, also called He Ab Q295_18N) heavy 1: not shown heavy 2: not shown light: DIVMTQSPLSLPVTPGEPASISCQASESLVHSNRNTYLHWYLQKPGQSPQLLIYKVSNRFSGVPDRFSGSGSGTDFTLKISRVEAEDVGVYYCSQNTHVPPTFGQGTKVEIERTVAAPSVFIFPPSDEQLKSGTASVVCLLNNFYPREAKVQWKVDNALQSGNSQESVTEQDSKDSTYSLSSTLTLSKADYEKHKVYACEVTHQGLSSPVTKSFNRGEC","102 relative binding, control = 100"
2,"GpH7-A5/GpH7-B3 variant S267_03V/GpL16-k0 (antibody, human IgG1, kappa, also called He Ab S267_03V) heavy 1: not shown heavy 2: not shown light: DIVMTQSPLSLPVTPGEPASISCQASESLVHSNRNTYLHWYLQKPGQSPQLLIYKVSNRFSGVPDRFSGSGSGTDFTLKISRVEAEDVGVYYCSQNTHVPPTFGQGTKVEIERTVAAPSVFIFPPSDEQLKSGTASVVCLLNNFYPREAKVQWKVDNALQSGNSQESVTEQDSKDSTYSLSSTLTLSKADYEKHKVYACEVTHQGLSSPVTKSFNRGEC","106 relative binding, control = 100"
3,"GpH7-A5/GpH7-B3 variant S267_02A/GpL16-k0 (antibody, human IgG1, kappa, also called He Ab S267_02A) heavy 1: not shown heavy 2: not shown light: DIVMTQSPLSLPVTPGEPASISCQASESLVHSNRNTYLHWYLQKPGQSPQLLIYKVSNRFSGVPDRFSGSGSGTDFTLKISRVEAEDVGVYYCSQNTHVPPTFGQGTKVEIERTVAAPSVFIFPPSDEQLKSGTASVVCLLNNFYPREAKVQWKVDNALQSGNSQESVTEQDSKDSTYSLSSTLTLSKADYEKHKVYACEVTHQGLSSPVTKSFNRGEC","109 relative binding, control = 100"
4,"GpH7-A5/GpH7-B3 variant S239_18N/GpL16-k0 (antibody, human IgG1, kappa, also called He Ab S239_18N) heavy 1: not shown heavy 2: not shown light: DIVMTQSPLSLPVTPGEPASISCQASESLVHSNRNTYLHWYLQKPGQSPQLLIYKVSNRFSGVPDRFSGSGSGTDFTLKISRVEAEDVGVYYCSQNTHVPPTFGQGTKVEIERTVAAPSVFIFPPSDEQLKSGTASVVCLLNNFYPREAKVQWKVDNALQSGNSQESVTEQDSKDSTYSLSSTLTLSKADYEKHKVYACEVTHQGLSSPVTKSFNRGEC","101 relative binding, control = 100"
5,"GpH7-A5/GpH7-B3 variant S267_01G/GpL16-k0 (antibody, human IgG1, kappa, also called He Ab S267_01G) heavy 1: not shown heavy 2: not shown light: DIVMTQSPLSLPVTPGEPASISCQASESLVHSNRNTYLHWYLQKPGQSPQLLIYKVSNRFSGVPDRFSGSGSGTDFTLKISRVEAEDVGVYYCSQNTHVPPTFGQGTKVEIERTVAAPSVFIFPPSDEQLKSGTASVVCLLNNFYPREAKVQWKVDNALQSGNSQESVTEQDSKDSTYSLSSTLTLSKADYEKHKVYACEVTHQGLSSPVTKSFNRGEC","103 relative binding, control = 100"
6,"GpH7-A5/GpH7-B3 variant S267_08L/GpL16-k0 (antibody, human IgG1, kappa, also called He Ab S267_08L) heavy 1: not shown heavy 2: not shown light: DIVMTQSPLSLPVTPGEPASISCQASESLVHSNRNTYLHWYLQKPGQSPQLLIYKVSNRFSGVPDRFSGSGSGTDFTLKISRVEAEDVGVYYCSQNTHVPPTFGQGTKVEIERTVAAPSVFIFPPSDEQLKSGTASVVCLLNNFYPREAKVQWKVDNALQSGNSQESVTEQDSKDSTYSLSSTLTLSKADYEKHKVYACEVTHQGLSSPVTKSFNRGEC","101 relative binding, control = 100"
7,"GpH7-A5/GpH7-B3 variant S298_01G/GpL16-k0 (antibody, human IgG1, kappa, also called He Ab S298_01G) heavy 1: not shown heavy 2: not shown light: DIVMTQSPLSLPVTPGEPASISCQASESLVHSNRNTYLHWYLQKPGQSPQLLIYKVSNRFSGVPDRFSGSGSGTDFTLKISRVEAEDVGVYYCSQNTHVPPTFGQGTKVEIERTVAAPSVFIFPPSDEQLKSGTASVVCLLNNFYPREAKVQWKVDNALQSGNSQESVTEQDSKDSTYSLSSTLTLSKADYEKHKVYACEVTHQGLSSPVTKSFNRGEC","104 relative binding, control = 100"

# Now from value to binder:
row,He/Con_1a,Binder
1,"110 relative binding, control = 100","GpH7-A5/GpH7-B3 variant S298_03V/GpL16-k0 (antibody, human IgG1, kappa, also called He Ab S298_03V) heavy 1: not shown heavy 2: not shown light: DIVMTQSPLSLPVTPGEPASISCQASESLVHSNRNTYLHWYLQKPGQSPQLLIYKVSNRFSGVPDRFSGSGSGTDFTLKISRVEAEDVGVYYCSQNTHVPPTFGQGTKVEIERTVAAPSVFIFPPSDEQLKSGTASVVCLLNNFYPREAKVQWKVDNALQSGNSQESVTEQDSKDSTYSLSSTLTLSKADYEKHKVYACEVTHQGLSSPVTKSFNRGEC"
2,"101 relative binding, control = 100","GpH7-A5/GpH7-B3 variant S239_09D/GpL16-k0 (antibody, human IgG1, kappa, also called He Ab S239_09D) heavy 1: not shown heavy 2: not shown light: DIVMTQSPLSLPVTPGEPASISCQASESLVHSNRNTYLHWYLQKPGQSPQLLIYKVSNRFSGVPDRFSGSGSGTDFTLKISRVEAEDVGVYYCSQNTHVPPTFGQGTKVEIERTVAAPSVFIFPPSDEQLKSGTASVVCLLNNFYPREAKVQWKVDNALQSGNSQESVTEQDSKDSTYSLSSTLTLSKADYEKHKVYACEVTHQGLSSPVTKSFNRGEC"
3,"101 relative binding, control = 100","GpH7-A5/GpH7-B3 variant S239_01G/GpL16-k0 (antibody, human IgG1, kappa, also called He Ab S239_01G) heavy 1: not shown heavy 2: not shown light: DIVMTQSPLSLPVTPGEPASISCQASESLVHSNRNTYLHWYLQKPGQSPQLLIYKVSNRFSGVPDRFSGSGSGTDFTLKISRVEAEDVGVYYCSQNTHVPPTFGQGTKVEIERTVAAPSVFIFPPSDEQLKSGTASVVCLLNNFYPREAKVQWKVDNALQSGNSQESVTEQDSKDSTYSLSSTLTLSKADYEKHKVYACEVTHQGLSSPVTKSFNRGEC"
4,"107 relative binding, control = 100","GpH7-A5/GpH7-B3 variant S298_02A/GpL16-k0 (antibody, human IgG1, kappa, also called He Ab S298_02A; GpH7-A5/GpH7-B3-15-02A/GpL16-k0) heavy 1: not shown heavy 2: not shown light: DIVMTQSPLSLPVTPGEPASISCQASESLVHSNRNTYLHWYLQKPGQSPQLLIYKVSNRFSGVPDRFSGSGSGTDFTLKISRVEAEDVGVYYCSQNTHVPPTFGQGTKVEIERTVAAPSVFIFPPSDEQLKSGTASVVCLLNNFYPREAKVQWKVDNALQSGNSQESVTEQDSKDSTYSLSSTLTLSKADYEKHKVYACEVTHQGLSSPVTKSFNRGEC"
5,"110 relative binding, control = 100","GpH7-A5/GpH7-B3 variant S267_09D/GpL16-k0 (antibody, human IgG1, kappa, also called He Ab S267_09D) heavy 1: not shown heavy 2: not shown light: DIVMTQSPLSLPVTPGEPASISCQASESLVHSNRNTYLHWYLQKPGQSPQLLIYKVSNRFSGVPDRFSGSGSGTDFTLKISRVEAEDVGVYYCSQNTHVPPTFGQGTKVEIERTVAAPSVFIFPPSDEQLKSGTASVVCLLNNFYPREAKVQWKVDNALQSGNSQESVTEQDSKDSTYSLSSTLTLSKADYEKHKVYACEVTHQGLSSPVTKSFNRGEC"
6,"101 relative binding, control = 100","GpH7-A5/GpH7-B3 variant S239_19Q/GpL16-k0 (antibody, human IgG1, kappa, also called He Ab S239_19Q) heavy 1: not shown heavy 2: not shown light: DIVMTQSPLSLPVTPGEPASISCQASESLVHSNRNTYLHWYLQKPGQSPQLLIYKVSNRFSGVPDRFSGSGSGTDFTLKISRVEAEDVGVYYCSQNTHVPPTFGQGTKVEIERTVAAPSVFIFPPSDEQLKSGTASVVCLLNNFYPREAKVQWKVDNALQSGNSQESVTEQDSKDSTYSLSSTLTLSKADYEKHKVYACEVTHQGLSSPVTKSFNRGEC"
7,"109 relative binding, control = 100","GpH7-A5/GpH7-B3 variant S298_04F/GpL16-k0 (antibody, human IgG1, kappa, also called He Ab S298_04F) heavy 1: not shown heavy 2: not shown light: DIVMTQSPLSLPVTPGEPASISCQASESLVHSNRNTYLHWYLQKPGQSPQLLIYKVSNRFSGVPDRFSGSGSGTDFTLKISRVEAEDVGVYYCSQNTHVPPTFGQGTKVEIERTVAAPSVFIFPPSDEQLKSGTASVVCLLNNFYPREAKVQWKVDNALQSGNSQESVTEQDSKDSTYSLSSTLTLSKADYEKHKVYACEVTHQGLSSPVTKSFNRGEC"
8,"101 relative binding, control = 100","GpH7-A5/GpH7-B3 variant S239_14T/GpL16-k0 (antibody, human IgG1, kappa, also called He Ab S239_14T) heavy 1: not shown heavy 2: not shown light: DIVMTQSPLSLPVTPGEPASISCQASESLVHSNRNTYLHWYLQKPGQSPQLLIYKVSNRFSGVPDRFSGSGSGTDFTLKISRVEAEDVGVYYCSQNTHVPPTFGQGTKVEIERTVAAPSVFIFPPSDEQLKSGTASVVCLLNNFYPREAKVQWKVDNALQSGNSQESVTEQDSKDSTYSLSSTLTLSKADYEKHKVYACEVTHQGLSSPVTKSFNRGEC"
9,"100 relative binding, control = 100","GpH7-A5/GpH7-B3 variant S267_16H/GpL16-k0 (antibody, human IgG1, kappa, also called He Ab S267_16H) heavy 1: not shown heavy 2: not shown light: DIVMTQSPLSLPVTPGEPASISCQASESLVHSNRNTYLHWYLQKPGQSPQLLIYKVSNRFSGVPDRFSGSGSGTDFTLKISRVEAEDVGVYYCSQNTHVPPTFGQGTKVEIERTVAAPSVFIFPPSDEQLKSGTASVVCLLNNFYPREAKVQWKVDNALQSGNSQESVTEQDSKDSTYSLSSTLTLSKADYEKHKVYACEVTHQGLSSPVTKSFNRGEC"
